Source: patent US9320812

T1: human ephrin-A4 (human, UniProt P52798)
T1 chain: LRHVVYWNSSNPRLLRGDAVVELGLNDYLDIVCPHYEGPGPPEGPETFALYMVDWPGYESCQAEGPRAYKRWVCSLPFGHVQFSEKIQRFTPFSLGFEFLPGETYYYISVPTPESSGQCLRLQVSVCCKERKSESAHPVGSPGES


Experiments:
human ephrin-A4 [1] = target: T1, human ephrin-A4; test: SPR
human ephrin-A4 [2] = target: T1, human ephrin-A4; test: FACS

| Binder | Kd (human ephrin-A4 [1]) [nM] | binding result (human ephrin-A4 [2]) |
| --- | --- | --- |
| SC4.47 (antibody, V domains shown) VH: EVQLQQSGPELVKPGASVKISCTASGYTFTYFYMNWVKQSQGKSLEWVGQINPNNGGTAYNHKFRGKTTLTVDKSSNTAFMELRSLTSEDSAVYFCARWVGTHYFDYWGQGTTLTVSS VL: DIVLTQSPASLPVSLGQRATISCRASQSVSSSSYTYIHWYQQKPGQPPKLLINFASNLESGVPARFSVSGSGTDFTLNIHPVEGEDTATYYCQHSWEIPPTFGGGTKLEIK | 1.1 |  |
| EphB4-Fc (protein) LEETLLNTKLETADLKWVTFPQVDGQWEELSGLDEEQHSVRTYEVCDVQRAPGQAHWLRTGWVPRRGAVHVYATLRFTMLECLSLPRAGRSCKETFTVFYYESDADTATALTPAWMENPYIKVDTVAAEHLTRKRPGAEATGKVNVKTLRLGPLSKAGFYLAFQDQGACMALLSLHLFYKKCAQLTVNLTRFPETVPRELVVPVAGSCVVDAVPAPGPSPSLYCREDGQWAEQPVTGCSCAPGFEAAEGNTKCRACAQGTFKPLSGEGSCQPCPANSHSNTIGSAVCQCRVGYFRARTDPRGAPCTTPPSAPRSVVSRLNGSSLHLEWSAPLESGGREDLTYALRCRECRPGGSCAPCGGDLTFDPGPRDLVEPWVVVRGLRPDFTYTFEVTALNGVSSLATGPVPFEPVNVTTDREVPPAVSDIRVTRSSPSSLSLAWAVPRAPSGAVLDYEVKYHEKGAEGPSSVRFLKTSENRAELRGLKRGASYLVQVRARSEAGYGPFGQEHHSQTQLDESEGWREQLA |  | no binding |
